B1: MCM-BP with no tags (natural protein, human, UniProt Q9BTE3 1-642, looked up)
chain: MPCGEDWLSHPLGIVQGFFAQNGVNPDWEKKVIEYFKEKLKENNAPKWVPSLNEVPLHYLKPNSFVKFRCMIQDMFDPEFYMGVYETVNQNTKAHVLHFGKYRDVAECGPQQELDLNSPRNTTLERQTFYCVPVPGESTWVKEAYVNANQARVSPSTSYTPSRHKRSYEDDDDMDLQPNKQKDQHAGARQAGSVGGLQWCGEPKRLETEASTGQQLNSLNLSSPFDLNFPLPGEKGPACLVKVYEDWDCFKVNDILELYGILSVDPVLSILNNDERDASALLDPMECTDTAEEQRVHSPPASLVPRIHVILAQKLQHINPLLPACLNKEESKTCKFVSSFMSELSPVRAELLGFLTHALLGDSLAAEYLILHLISTVYTRRDVLPLGKFTVNLSGCPRNSTFTEHLYRIIQHLVPASFRLQMTIENMNHLKFIPHKDYTANRLVSGLLQLPSNTSLVIDETLLEQGQLDTPGVHNVTALSNLITWQKVDYDFSYHQMEFPCNINVFITSEGRSLLPADCQIHLQPQLIPPNMEEYMNSLLSAVLPSVLNKFRIYLTLLRFLEYSISDEITKAVEDDFVEMRKNDPQSITADDLHQLLVVARCLSLSAGQTTLSRERWLRAKQLESLRRTRLQQQKCVNGNEL
notes: MCM-BP, human; made from pfastBacHT.MCM-BP by excising the 6-His tag; also called untagged MCM-BP; nontagged MCM-BP; source: High Five insect cells, baculovirus, co-expressed, in lysate
B2: His-tagged MCM-BP (natural protein, human, UniProt Q9BTE3 1-642, looked up)
chain: B1 chain
notes: MCM-BP, human; pfastBacHT.MCM-BP; also called His-MCM-BP; His-BP; source: High Five insect cells, baculovirus; not shown: His6, N-terminal, kept

What was measured:
Settings in all cases: partners not purified
[1] = molecular target: T1, MCM5 with 6-His tag in combination with a triple FLAG tag (UniProt P33992 1-734); experiment: pull-down; co-expression in High Five insect cells; lysis in 50-100 mM Tris-HCl pH 8.0, 150 mM NaCl, 5% glycerol, 0.5% Triton X-100; tagged protein recovered on Ni-NTA, anti-FLAG M2, anti-HA or StrepT-actin resin, 1 hr at 4°C; washes with 300 mM NaCl; Coomassie staining and Western blot
T1 construct: MCM5; also called FLAG-MCM5; 6-His-tagged MCM5; source: High Five insect cells, baculovirus, in lysate; not shown: His6, N-terminal, kept; triple FLAG, N-terminal, kept
T1 sequence (looked up): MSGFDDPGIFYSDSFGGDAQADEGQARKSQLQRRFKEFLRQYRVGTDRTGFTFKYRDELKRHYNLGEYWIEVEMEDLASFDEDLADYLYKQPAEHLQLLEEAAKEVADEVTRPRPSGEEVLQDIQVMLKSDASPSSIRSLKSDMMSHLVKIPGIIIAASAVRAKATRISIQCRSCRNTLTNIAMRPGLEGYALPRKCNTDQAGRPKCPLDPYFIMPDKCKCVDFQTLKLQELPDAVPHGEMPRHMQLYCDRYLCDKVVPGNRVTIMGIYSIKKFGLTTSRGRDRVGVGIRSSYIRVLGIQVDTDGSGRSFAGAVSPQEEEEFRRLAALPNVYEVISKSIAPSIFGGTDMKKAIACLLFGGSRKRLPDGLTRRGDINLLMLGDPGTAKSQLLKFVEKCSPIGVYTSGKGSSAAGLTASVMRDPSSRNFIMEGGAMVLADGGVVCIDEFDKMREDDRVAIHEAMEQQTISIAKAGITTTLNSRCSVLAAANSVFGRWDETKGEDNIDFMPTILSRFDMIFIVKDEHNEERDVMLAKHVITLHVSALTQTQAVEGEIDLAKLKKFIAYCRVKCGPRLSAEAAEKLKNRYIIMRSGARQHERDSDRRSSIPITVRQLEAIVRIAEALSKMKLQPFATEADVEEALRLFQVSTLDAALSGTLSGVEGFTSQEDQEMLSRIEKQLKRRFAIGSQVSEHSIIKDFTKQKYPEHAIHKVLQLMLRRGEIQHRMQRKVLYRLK

[2] = molecular target: T2, MCM6 with 6-His tag in combination with a HA tag (human, UniProt Q14566 1-821); experiment: as above
T2 construct: MCM6; also called HA-MCM6; 6-His-tagged MCM6; source: High Five insect cells, baculovirus, in lysate
T2 sequence (looked up): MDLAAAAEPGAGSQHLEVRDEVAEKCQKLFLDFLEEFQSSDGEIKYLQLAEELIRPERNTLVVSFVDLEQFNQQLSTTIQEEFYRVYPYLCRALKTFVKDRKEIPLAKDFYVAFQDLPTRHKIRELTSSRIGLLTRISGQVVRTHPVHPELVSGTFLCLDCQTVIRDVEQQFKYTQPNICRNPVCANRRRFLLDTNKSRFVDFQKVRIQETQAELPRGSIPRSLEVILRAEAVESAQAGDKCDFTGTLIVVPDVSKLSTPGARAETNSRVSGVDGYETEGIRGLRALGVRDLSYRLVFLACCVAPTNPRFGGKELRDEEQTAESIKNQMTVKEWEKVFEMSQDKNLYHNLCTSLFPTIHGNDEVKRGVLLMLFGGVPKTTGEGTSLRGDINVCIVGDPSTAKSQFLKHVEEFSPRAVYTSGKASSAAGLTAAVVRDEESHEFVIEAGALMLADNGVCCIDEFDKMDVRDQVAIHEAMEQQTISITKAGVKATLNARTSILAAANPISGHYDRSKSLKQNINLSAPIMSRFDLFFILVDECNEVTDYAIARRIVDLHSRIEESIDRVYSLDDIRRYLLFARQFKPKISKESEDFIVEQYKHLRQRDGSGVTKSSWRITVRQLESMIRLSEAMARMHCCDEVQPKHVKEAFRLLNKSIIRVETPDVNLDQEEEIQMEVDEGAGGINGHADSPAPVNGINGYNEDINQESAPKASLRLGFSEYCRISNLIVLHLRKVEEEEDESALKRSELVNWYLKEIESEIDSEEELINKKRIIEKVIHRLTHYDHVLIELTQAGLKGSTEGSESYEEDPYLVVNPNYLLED

[3] = molecular target: T3, MCM4 with 6-His tag in combination with a StrepII tag (UniProt P33991 1-863); experiment: as above
T3 construct: MCM4; The methods describe one MCM4 baculovirus with both tags; also called Strep-MCM4; Strep-tagged MCM4; source: High Five insect cells, baculovirus, in lysate
T3 sequence (looked up): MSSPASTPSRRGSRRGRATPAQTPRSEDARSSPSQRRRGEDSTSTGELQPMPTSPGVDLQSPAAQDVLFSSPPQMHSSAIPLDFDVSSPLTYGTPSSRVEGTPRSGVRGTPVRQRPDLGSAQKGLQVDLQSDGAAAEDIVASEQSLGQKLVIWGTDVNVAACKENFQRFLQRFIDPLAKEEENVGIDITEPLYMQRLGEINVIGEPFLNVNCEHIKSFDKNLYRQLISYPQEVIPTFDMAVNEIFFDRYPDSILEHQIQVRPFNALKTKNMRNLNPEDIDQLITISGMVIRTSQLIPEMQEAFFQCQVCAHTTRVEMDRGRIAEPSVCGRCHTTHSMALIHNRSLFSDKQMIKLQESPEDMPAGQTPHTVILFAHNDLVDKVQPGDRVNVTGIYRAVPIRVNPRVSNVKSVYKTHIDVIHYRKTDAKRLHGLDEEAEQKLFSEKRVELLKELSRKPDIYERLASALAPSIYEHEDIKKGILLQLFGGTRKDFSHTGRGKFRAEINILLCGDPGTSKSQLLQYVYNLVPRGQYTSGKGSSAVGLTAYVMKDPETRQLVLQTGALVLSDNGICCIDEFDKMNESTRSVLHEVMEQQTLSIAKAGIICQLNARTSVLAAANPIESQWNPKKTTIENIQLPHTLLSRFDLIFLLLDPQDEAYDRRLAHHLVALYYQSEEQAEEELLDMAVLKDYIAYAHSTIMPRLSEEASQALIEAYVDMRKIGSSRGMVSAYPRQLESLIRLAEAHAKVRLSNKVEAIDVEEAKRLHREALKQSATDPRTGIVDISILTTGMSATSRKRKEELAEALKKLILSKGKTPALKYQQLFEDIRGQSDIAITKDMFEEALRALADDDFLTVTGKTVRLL

[4] = molecular target: T4, untagged MCM3 (UniProt P25205 1-808); experiment: pull-down; co-expression in High Five insect cells; NaCl of the clarified lysate raised from 0.15 M up to 0.75 M, or deoxycholate added to 0.1 or 0.5% (with 150 mM NaCl), before incubation with Strep-T actin, anti-FLAG or nickel resin; Coomassie staining
T4 construct: MCM3, untagged; construct not described in the methods; also called MCM3 (no tag); source: High Five insect cells, baculovirus, in lysate; co-isolated with His-MCM-BP for the gradient
T4 sequence (looked up): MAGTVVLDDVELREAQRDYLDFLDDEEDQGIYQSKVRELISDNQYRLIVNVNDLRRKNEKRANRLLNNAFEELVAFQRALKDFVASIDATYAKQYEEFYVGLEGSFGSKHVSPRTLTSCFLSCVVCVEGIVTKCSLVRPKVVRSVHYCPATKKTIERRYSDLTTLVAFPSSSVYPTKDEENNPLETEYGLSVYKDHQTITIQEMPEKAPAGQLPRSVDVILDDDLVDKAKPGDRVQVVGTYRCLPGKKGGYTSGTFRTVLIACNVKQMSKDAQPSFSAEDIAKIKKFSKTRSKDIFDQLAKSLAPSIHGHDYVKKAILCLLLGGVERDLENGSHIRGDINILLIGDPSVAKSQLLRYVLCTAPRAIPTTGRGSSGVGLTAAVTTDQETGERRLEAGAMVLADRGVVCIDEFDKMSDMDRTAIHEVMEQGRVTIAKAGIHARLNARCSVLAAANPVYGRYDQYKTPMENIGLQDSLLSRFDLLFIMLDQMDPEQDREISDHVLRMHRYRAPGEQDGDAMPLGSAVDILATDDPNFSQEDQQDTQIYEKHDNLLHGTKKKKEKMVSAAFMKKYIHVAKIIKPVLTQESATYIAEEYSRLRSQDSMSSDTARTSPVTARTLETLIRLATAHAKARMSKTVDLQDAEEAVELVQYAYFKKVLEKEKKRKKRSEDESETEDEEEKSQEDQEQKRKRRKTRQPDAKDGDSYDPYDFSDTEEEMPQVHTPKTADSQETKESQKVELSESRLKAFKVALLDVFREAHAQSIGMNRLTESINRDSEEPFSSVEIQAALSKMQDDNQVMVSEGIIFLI

Row | Binder | binding result [1] | binding result [2] | binding result [3] | binding result [4]
1 | B1 | binds | binds | binds | –
2 | B2 | – | – | – | binds

Reference: publication PMC3335088 (PLoS ONE, 2012)
